Data from paper PMC9604360 (2022).

Biological target: T1, Ribonuclease A (scrambled, oxidized) (Bos taurus, UniProt P61823)
T1 chain: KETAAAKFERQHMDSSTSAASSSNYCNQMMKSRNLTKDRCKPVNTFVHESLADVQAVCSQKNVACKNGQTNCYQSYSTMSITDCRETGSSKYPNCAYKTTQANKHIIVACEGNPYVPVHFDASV
Assay: intrinsic fluorescence quenching

B1: MET 25-932 (protein)
chain: ECKEALAKSEMNVNMKYQLPNFTAETPIQNVILHEHHIFLGATNYIYVLNEEDLQKVAEYKTGPVLEHPDCFPCQDCSSKANLSGGVWKDNINMALVVDTYYDDQLISCGSVNRGTCQRHVFPHNHTADIQSEVHCIFSPQIEEPSQCPDCVVSALGAKVLSSVKDRFINFFVGNTINSSYFPDHPLHSISVRRLKETKDGFMFLTDQSYIDVLPEFRDSYPIKYVHAFESNNFIYFLTVQRETLDAQTFHTRIIRFCSINSGLHSYMEMPLECILTEKRKKRSTKKEVFNILQAAYVSKPGAQLARQIGASLNDDILFGVFAQSKPDSAEPMDRSAMCAFPIKYVNDFFNKIVNKNNVRCLQHFYGPNHEHCFNRTLLRNSSGCEARRDEYRTEFTTALQRVDLFMGQFSEVLLTSISTFIKGDLTIANLGTSEGRFMQVVVSRSGPSTPHVNFLLDSHPVSPEVIVEHTLNQNGYTLVITGKKITKIPLNGLGCRHFQSCSQCLSAPPFVQCGWCHDKCVRSEECLSGTWTQQICLPAIYKVFPNSAPLEGGTRLTICGWDFGFRRNNKFDLKKTRVLLGNESCTLTLSESTMNTLKCTVGPAMNKHFNMSIIISNGHGTTQYSTFSYVDPVITSISPKYGPMAGGTLLTLTGNYLNSGNSRHISIGGKTCTLKSVSNSILECYTPAQTISTEFAVKLKIDLANRETSIFSYREDPIVYEIHPTKSFISGGSTITGVGKNLNSVSVPRMVINVHEAGRNFTVACQHRSNSEIICCTTPSLQQLNLQLPLKTKAFFMLDGILSKYFDLIYVHNPVFKPFEKPVMISMGNENVLEIKGNDIDPEAVKGEVLKVGNKSCENIHLHSEAVLCTVPNDLLKLNSELNIEWKQAISSTVLGKVIVQPDQNFT
modifications: scrambled disulfides of RNase A
  Kd: ~300 nM
